# Results taken from the RNAGym collection of RNA variant scans (doi:10.1093/molbev/msab373).
# B1: Azoarcus group I ribozyme (parent)
# chain: GUGCCUUGCGCCGGGAAACCACGCAAGGGAUGGUGUCAAAUUCGGCGAAACCUAAGCGCCCGCCCGGGCGUAUGGCAACGCCGAGCCAAGCUUCGGCGCCUGCGCCGAUGAAGGUGUAGAGACUAGACGGCACCCACCUAAGGCAAACGCUAUGGUGAAGGCAUAGUCCAGGGAGUGGCGAAAGUCACACAAACCGG
# Variants of: B1
# Experiment: reverse-splicing fitness (ratio to wild type); higher = more active; in vitro selection; Mg2+ level not given
# In short: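 An in vitro group I ribozyme library with randomized positions was T7-transcribed and gel-purified. In triplicate, 10 pmol RNA in EPPS pH 7.5 was reacted with 50 pmoles of a 30-nt RNA substrate for 1 h at 37 °C across several added MgCl2 levels (1–48 mM), then stopped with EDTA. Products were reverse transcribed from a substrate-complementary primer, PCR-amplified and sequenced (HiSeq 4000). Fitness is a variant's read proportion after selection over that before, normalised to wild type.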
row,Variant,reverse-splicing fitness
1,GUGCCUUGCGCCGGGAAACCACGCAAGGGAUGGUGUCAAAUUCGGCGAAACCUAAGCGCCCGCCCGGGCGUAUGGCAACGCUGAGCCAAGCUUCGGCGCCUGCGCCGAUGCAGGUGUAGCGACUAGACGGCACCCACCUAAGGCAAACGGUAUGGUGAAGGCAUAGUCGAGGGAGAGGCGAAAGUCACACAAACCGG [C82U A111C A120C C150G C169G U176A],0.00777
2,GUGCCUUGCGCCGGGAAACCACGCAAGGGAUGGUGUCAAAUUCGGCGAAACCUAAGCGCCCGCCCGGGCGUAUGGCAACGCUGAGCCAAGCUUCGGCGCCUGCGCCGAUGCAGGUGUAGCGACUAGACGGCACCCACCUAAGGCAAACGGUAUGGUGAAGGCAUAGUCGAGGGAGCGGCGAAAGUCACACAAACCGG [C82U A111C A120C C150G C169G U176C],0.0068
3,GUGCCUUGCGCCGGGAAACCACGCAAGGGAUGGUGUCAAAUUCGGCGAAACCUAAGCGCCCGCCCGGGCGUAUGGCAACGCUGAGCCAAGCUUCGGCGCCUGCGCCGAUGCAGGUGUAGCGACUAGACGGCACCCACCUAAGGCAAACGGUAUGGUGAAGGCAUAGUCGAGGGAGGGGCGAAAGUCACACAAACCGG [C82U A111C A120C C150G C169G U176G],0.00547
4,GUGCCUUGCGCCGGGAAACCACGCAAGGGAUGGUGUCAAAUUCGGCGAAACCUAAGCGCCCGCCCGGGCGUAUGGCAACGCUGAGCCAAGCUUCGGCGCCUGCGCCGAUGCAGGUGUAGCGACUAGACGGCACCCACCUAAGGCAAACGAUAUGGUGAAGGCAUAGUCUAGGGAGCGGCGAAAGUCACACAAACCGG [C82U A111C A120C C150A C169U U176C],0.0181
5,GUGCCUUGCGCCGGGAAACCACGCAAGGGAUGGUGUCAAAUUCGGCGAAACCUAAGCGCCCGCCCGGGCGUAUGGCAACGCUGAGCCAAGCUUCGGCGCCUGCGCCGAUGCAGGUGUAGCGACUAGACGGCACCCACCUAAGGCAAACGAUAUGGUGAAGGCAUAGUCUAGGGAGAGGCGAAAGUCACACAAACCGG [C82U A111C A120C C150A C169U U176A],0.0178
6,GUGCCUUGCGCCGGGAAACCACGCAAGGGAUGGUGUCAAAUUCGGCGAAACCUAAGCGCCCGCCCGGGCGUAUGGCAACGCUGAGCCAAGCUUCGGCGCCUGCGCCGAUGCAGGUGUAGCGACUAGACGGCACCCACCUAAGGCAAACGAUAUGGUGAAGGCAUAGUCUAGGGAGGGGCGAAAGUCACACAAACCGG [C82U A111C A120C C150A C169U U176G],0.00677
7,GUGCCUUGCGCCGGGAAACCACGCAAGGGAUGGUGUCAAAUUCGGCGAAACCUAAGCGCCCGCCCGGGCGUAUGGCAACGCUGAGCCAAGCUUCGGCGCCUGCGCCGAUGCAGGUGUAGCGACUAGACGGCACCCACCUAAGGCAAACGAUAUGGUGAAGGCAUAGUCAAGGGAGAGGCGAAAGUCACACAAACCGG [C82U A111C A120C C150A C169A U176A],0.0186
8,GUGCCUUGCGCCGGGAAACCACGCAAGGGAUGGUGUCAAAUUCGGCGAAACCUAAGCGCCCGCCCGGGCGUAUGGCAACGCUGAGCCAAGCUUCGGCGCCUGCGCCGAUGCAGGUGUAGCGACUAGACGGCACCCACCUAAGGCAAACGAUAUGGUGAAGGCAUAGUCAAGGGAGGGGCGAAAGUCACACAAACCGG [C82U A111C A120C C150A C169A U176G],0.00712
9,GUGCCUUGCGCCGGGAAACCACGCAAGGGAUGGUGUCAAAUUCGGCGAAACCUAAGCGCCCGCCCGGGCGUAUGGCAACGCUGAGCCAAGCUUCGGCGCCUGCGCCGAUGCAGGUGUAGCGACUAGACGGCACCCACCUAAGGCAAACGAUAUGGUGAAGGCAUAGUCAAGGGAGCGGCGAAAGUCACACAAACCGG [C82U A111C A120C C150A C169A U176C],0.0136
10,GUGCCUUGCGCCGGGAAACCACGCAAGGGAUGGUGUCAAAUUCGGCGAAACCUAAGCGCCCGCCCGGGCGUAUGGCAACGCUGAGCCAAGCUUCGGCGCCUGCGCCGAUGCAGGUGUAGCGACUAGACGGCACCCACCUAAGGCAAACGGUAUGGUGAAGGCAUAGUCAAGGGAGGGGCGAAAGUCACACAAACCGG [C82U A111C A120C C150G C169A U176G],0.00618
11,GUGCCUUGCGCCGGGAAACCACGCAAGGGAUGGUGUCAAAUUCGGCGAAACCUAAGCGCCCGCCCGGGCGUAUGGCAACGCUGAGCCAAGCUUCGGCGCCUGCGCCGAUGCAGGUGUAGCGACUAGACGGCACCCACCUAAGGCAAACGGUAUGGUGAAGGCAUAGUCAAGGGAGAGGCGAAAGUCACACAAACCGG [C82U A111C A120C C150G C169A U176A],0.00943
12,GUGCCUUGCGCCGGGAAACCACGCAAGGGAUGGUGUCAAAUUCGGCGAAACCUAAGCGCCCGCCCGGGCGUAUGGCAACGCUGAGCCAAGCUUCGGCGCCUGCGCCGAUGCAGGUGUAGCGACUAGACGGCACCCACCUAAGGCAAACGGUAUGGUGAAGGCAUAGUCAAGGGAGCGGCGAAAGUCACACAAACCGG [C82U A111C A120C C150G C169A U176C],0.00876
13,GUGCCUUGCGCCGGGAAACCACGCAAGGGAUGGUGUCAAAUUCGGCGAAACCUAAGCGCCCGCCCGGGCGUAUGGCAACGCUGAGCCAAGCUUCGGCGCCUGCGCCGAUGCAGGUGUAGCGACUAGACGGCACCCACCUAAGGCAAACGAUAUGGUGAAGGCAUAGUCGAGGGAGGGGCGAAAGUCACACAAACCGG [C82U A111C A120C C150A C169G U176G],0.00704
14,GUGCCUUGCGCCGGGAAACCACGCAAGGGAUGGUGUCAAAUUCGGCGAAACCUAAGCGCCCGCCCGGGCGUAUGGCAACGCUGAGCCAAGCUUCGGCGCCUGCGCCGAUGCAGGUGUAGCGACUAGACGGCACCCACCUAAGGCAAACGAUAUGGUGAAGGCAUAGUCGAGGGAGCGGCGAAAGUCACACAAACCGG [C82U A111C A120C C150A C169G U176C],0.0184
15,GUGCCUUGCGCCGGGAAACCACGCAAGGGAUGGUGUCAAAUUCGGCGAAACCUAAGCGCCCGCCCGGGCGUAUGGCAACGCUGAGCCAAGCUUCGGCGCCUGCGCCGAUGCAGGUGUAGCGACUAGACGGCACCCACCUAAGGCAAACGAUAUGGUGAAGGCAUAGUCGAGGGAGAGGCGAAAGUCACACAAACCGG [C82U A111C A120C C150A C169G U176A],0.0161
